According to paper PMC12344411, “Cytosolic- and membrane-localized oxidized indole-3-acetic acid formation regulates developmental auxin transients” (Plant physiology, 2025):
Values belong to the molecule of their own block, whether it stands above or below them.

Legend:
[1] = target: TIR1 (Arabidopsis thaliana) (UniProt Q570C0); experiment: BLI; conditions: cited from earlier work
[2] = target: TIR1 (Arabidopsis thaliana) (UniProt Q570C0); experiment: BLI; conditions: cited from earlier work; remark: listed apart in the source
TIR1 = target: T1, TIR1 (Arabidopsis thaliana, UniProt Q570C0); experiment: synthetic yeast system, TIR1-dependent degradation of YFP-IAA7 and YFP-IAA17 by flow cytometry; assay type: cell-based
T1 construct: with IAA7
T1 sequence (Q570C0 1-594): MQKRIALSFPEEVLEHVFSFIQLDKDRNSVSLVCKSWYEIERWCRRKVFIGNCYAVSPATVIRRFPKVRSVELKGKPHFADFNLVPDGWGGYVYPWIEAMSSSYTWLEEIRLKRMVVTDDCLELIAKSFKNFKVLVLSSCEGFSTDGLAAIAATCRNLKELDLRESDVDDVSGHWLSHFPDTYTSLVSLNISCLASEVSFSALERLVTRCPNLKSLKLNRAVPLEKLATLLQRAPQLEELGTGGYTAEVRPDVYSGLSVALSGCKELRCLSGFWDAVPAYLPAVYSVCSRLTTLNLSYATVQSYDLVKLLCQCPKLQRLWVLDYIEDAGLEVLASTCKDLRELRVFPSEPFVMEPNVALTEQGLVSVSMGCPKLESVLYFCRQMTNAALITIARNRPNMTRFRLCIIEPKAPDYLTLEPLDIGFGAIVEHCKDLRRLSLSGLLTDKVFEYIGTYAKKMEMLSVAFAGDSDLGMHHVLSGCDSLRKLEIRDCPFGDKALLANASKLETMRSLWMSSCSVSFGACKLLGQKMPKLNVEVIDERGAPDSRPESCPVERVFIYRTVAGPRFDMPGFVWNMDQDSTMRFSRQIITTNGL
T1 sequence (Q38825 1-243 partner): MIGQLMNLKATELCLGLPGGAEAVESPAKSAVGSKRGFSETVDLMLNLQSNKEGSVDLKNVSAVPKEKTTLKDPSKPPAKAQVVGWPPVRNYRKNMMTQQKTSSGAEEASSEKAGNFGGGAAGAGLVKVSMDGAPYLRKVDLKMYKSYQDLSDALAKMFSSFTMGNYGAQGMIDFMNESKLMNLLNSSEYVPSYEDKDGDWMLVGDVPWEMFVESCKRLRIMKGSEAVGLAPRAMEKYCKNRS

IAA7 = target: T2, IAA7 (Arabidopsis thaliana, UniProt Q38825); experiment: BLI
T2 chain: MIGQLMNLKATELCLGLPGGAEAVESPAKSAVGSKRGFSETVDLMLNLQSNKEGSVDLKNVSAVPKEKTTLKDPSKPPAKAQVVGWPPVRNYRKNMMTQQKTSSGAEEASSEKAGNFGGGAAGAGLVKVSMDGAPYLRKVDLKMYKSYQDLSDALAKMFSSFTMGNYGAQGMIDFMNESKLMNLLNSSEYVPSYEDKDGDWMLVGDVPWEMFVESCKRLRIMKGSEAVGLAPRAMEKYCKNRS

Molecule: IAA7 (from UniProt Q38825)
Kd [1]: 20000 nM
Kd [2]: 30 nM

Molecule: O=C(O)Cc1c[nH]c2ccccc12 [IAA, indole-3-acetic acid]
synthetic yeast system, TIR1-dependent degradation of YFP-IAA7 and YFP-IAA17 by (TIR1): signals from YFP-IAA7 and YFP-IAA17 decreased rapidly upon addition of IAA

Kd (IAA7): 200 nM
B1: TIR1 (protein)
chain: MQKRIALSFPEEVLEHVFSFIQLDKDRNSVSLVCKSWYEIERWCRRKVFIGNCYAVSPATVIRRFPKVRSVELKGKPHFADFNLVPDGWGGYVYPWIEAMSSSYTWLEEIRLKRMVVTDDCLELIAKSFKNFKVLVLSSCEGFSTDGLAAIAATCRNLKELDLRESDVDDVSGHWLSHFPDTYTSLVSLNISCLASEVSFSALERLVTRCPNLKSLKLNRAVPLEKLATLLQRAPQLEELGTGGYTAEVRPDVYSGLSVALSGCKELRCLSGFWDAVPAYLPAVYSVCSRLTTLNLSYATVQSYDLVKLLCQCPKLQRLWVLDYIEDAGLEVLASTCKDLRELRVFPSEPFVMEPNVALTEQGLVSVSMGCPKLESVLYFCRQMTNAALITIARNRPNMTRFRLCIIEPKAPDYLTLEPLDIGFGAIVEHCKDLRRLSLSGLLTDKVFEYIGTYAKKMEMLSVAFAGDSDLGMHHVLSGCDSLRKLEIRDCPFGDKALLANASKLETMRSLWMSSCSVSFGACKLLGQKMPKLNVEVIDERGAPDSRPESCPVERVFIYRTVAGPRFDMPGFVWNMDQDSTMRFSRQIITTNGL
modifications: oxIAA (saturating)
